Experimental data published in patent publication US7285654.

Tested on: T1, GST-IκBβ (1-54)
T1 sequence: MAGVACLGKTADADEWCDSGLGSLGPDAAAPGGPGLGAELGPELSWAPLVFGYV

Substance: IKK signalsome (stimulus-inducible IκB kinase complex) immunopurified from TNFα-stimulated HeLa cells
- phosphorylation of substrate (kinase assay): the kinase phosphorylated GST-IκBβ (1-54), albeit with lower affinity
